These results are taken from patent US20200123515, “TGFBetaR2 ENDONUCLEASE VARIANTS, COMPOSITIONS, AND METHODS OF USE” (bluebird bio, Inc., published 2020).

Data set [1] concerns the target T1, TGFβR2.B3.F8 I-OnuI HE variant (HEK 293T expression) (Artificial Sequence (parent Ophiostoma …)).
T1 chain: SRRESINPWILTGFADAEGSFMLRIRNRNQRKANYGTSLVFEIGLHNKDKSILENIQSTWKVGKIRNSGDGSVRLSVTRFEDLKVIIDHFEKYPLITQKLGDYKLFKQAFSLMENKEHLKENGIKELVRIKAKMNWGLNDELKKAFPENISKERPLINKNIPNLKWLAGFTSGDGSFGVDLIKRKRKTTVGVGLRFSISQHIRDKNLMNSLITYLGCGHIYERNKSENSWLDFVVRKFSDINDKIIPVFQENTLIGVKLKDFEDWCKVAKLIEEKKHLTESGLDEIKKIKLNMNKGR
The data set can be described thus: cell_activity; rate of generating iRFP-positive cells; chromosomal reporter in HEK 293T. On the procedure: The activity of reprogrammed I-OnuI HEs that target exon 6 of the TGFβR2 gene was measured using a chromosomally integrated fluorescent reporter system (Certo et. al., 2011). Fully reprogrammed I-OnuI HEs that bind and cleave the TGFβR2 target sequence (SEQ ID NO: 11) were cloned into mammalian expression plasmids and then individually transfected into a HEK 293T […] cell line that contained the TGFβR2 target sequence upstream of an out-of-frame gene encoding the fluorescent iRFP protein. Cleavage of the embedded target site by the HE and the accumulation of indels following DNA repair via the non-homologous end joining (NHEJ) pathway results in approximately one out of three repaired loci placing the fluorescent reporter gene back “in-frame”. The percentage of iRFP fluorescing HEK 293T cells is therefore used a readout of endonuclease activity at the chromosomally embedded target sequence. […] FIG. 3 (top graph).
A secondary I-OnuI variant library was next generated by performing random mutagenesis on the TGFβR2.B3 HE variant (e.g., SEQ ID NO: 6). Display-based flow sorting was performed under more stringent cleavage conditions in an effort to isolate variants with improved catalytic efficiency. […] FIG. 3 (bottom graph).

In data set [2] the target is T2, TGFβR2.B3.F8 I-OnuI HE variant (yeast surface display) (Artificial Sequence (parent Ophiostoma …)).
T2 chain: T1 chain
Kind of data set: flow; sub-nanomolar affinity stated; yeast surface affinity titration, exact value only in figure. The following applies: tags: yeast surface display.

B1: TGFβR2 exon 6 I-OnuI HE variant target site (dsDNA)
DNA 1: CGACCAGAAATTCCCAGCTTCT
DNA 2: AGAAGCTGGGAATTTCTGGTCG
By Kd is commonly meant the free concentration of one partner at which half of the binding sites on the other are occupied at equilibrium, for simple one-to-one binding. B1: the activity in data set [1] is roughly 4 fold vs TGFβR2.B3. Moreover, the Kd in data set [2] was less than 1 nM.
